Reference: paper PMC10404610 (Biochemistry and Biophysics Reports, 2023)
No end group written: not given here.

Tests used:
CCL21 [1] = target: CCL21 (UniProt O00585); test: NMR titration
CCL21 [2] = target: T1, CCL21 (Homo sapiens, UniProt O00585); test: 2D 15N-1H HSQC NMR titration of [U-15N] CCL21 with PSGL1 1–15 peptide; type: binding
T1 sequence (O00585 24-134): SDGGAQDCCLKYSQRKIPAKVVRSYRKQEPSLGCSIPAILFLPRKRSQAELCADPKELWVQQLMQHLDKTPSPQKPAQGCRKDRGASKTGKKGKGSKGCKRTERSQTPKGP

Kd (CCL21 [1]) [µM] | Substance | Kd (CCL21 [2]) [µM]
300 | PSGL1 residues 1-15 peptide | 
 | QTAEYEYLDYDFLPE [PSGL1 peptide] | 300 ± 100
